One may read the koff as the rate constant with which the complex falls apart. By kon is commonly meant the second-order rate constant of association. For orientation: Kd means the concentration at which binding is half-saturated. As a reminder, the EC50 (read off the curve) is the concentration at which the effect is half-maximal. Lower therefore signals a more potent agent.

The source of these data is patent publication US20260274981A1 (VIB VZW, published 2026).

The target in assay [1] is T1, recombinant human TfR (2474-TR, R&D Systems), biotinylated (human, UniProt P02786 89-760, biotinylated with EZ-Link NHS-PEG4-Biotinylation Kit).
T1 construct: Bought protein; also called immobilized recombinant human TfR; biotinylated human TfR
Briefly: SPR (Biacore T200), biotinylated human TfR captured on an SA chip as ligand, VHH as analyte, single cycle kinetics, 1:1 binding model. From the text:
(§1) Phage libraries generated after 4 biweekly immunizations of two different camelids, underwent two rounds of pannings on CHO cell lines overexpressing either cynomolgus TfR in the first round or human TfR in the second round. Output libraries were screened with flow cytometry to find binders to human TfR overexpressing cells (FIG. 1A). […] Binding kinetics to recombinant human and cynomolgus TfR were further characterized with Surface Plasmon Resonance (SPR).
(§2) Surface Plasmon Resonance (SPR) was used to measure the interaction between VHHs and human or cynomolgus TfR receptor. Human TfR (2474-TR, R&D Systems) and cynomolgus TfR (90253-C07H, Sino Biological) were biotinylated with the EZ-Link NHS-PEG4-Biotinylation Kit (ThermoFischer Scientific) according to the manufacturer instructions. The binding experiments were performed at 25° C. on a Biacore T200 instrument (Cytiva, Uppsala, Sweden) in HBS-EP+ buffer (10 mM HEPES, 150 mM NaCl, 3 mM EDTA and 0.05% v/v Surfactant P20). Biotinylated human TfR and cynomolgus TfR were captured on a SA sensor chip (Cytiva) at a density of around 250 RU. Increasing concentrations of VHHs were sequentially injected in one single cycle at a flow rate of 30 μl/min. The dissociation was monitored for 20 min. […] A reference flow was used as a control for non-specific binding and refractive index changes. Several buffer blanks were used for double referencing. Binding affinities (KD) and kinetic rate constants (kₒₙ, koff) were derived after fitting the experimental data to the 1:1 binding model with the Biacore T200 Evaluation Software 3.1 using the single cycle kinetic procedure. Each interaction was repeated a least three times.

In assay [2] the target is T2, recombinant cynomolgus TfR (90253-C07H, Sino Biological), biotinylated (cynomolgus monkey, UniProt Q5RDH6 89-760 (Pongo abelii entry), biotinylated with EZ-Link NHS-PEG4-Biotinylation Kit).
T2 construct: Bought protein; also called immobilized recombinant cynomolgus TfR
T2 chain: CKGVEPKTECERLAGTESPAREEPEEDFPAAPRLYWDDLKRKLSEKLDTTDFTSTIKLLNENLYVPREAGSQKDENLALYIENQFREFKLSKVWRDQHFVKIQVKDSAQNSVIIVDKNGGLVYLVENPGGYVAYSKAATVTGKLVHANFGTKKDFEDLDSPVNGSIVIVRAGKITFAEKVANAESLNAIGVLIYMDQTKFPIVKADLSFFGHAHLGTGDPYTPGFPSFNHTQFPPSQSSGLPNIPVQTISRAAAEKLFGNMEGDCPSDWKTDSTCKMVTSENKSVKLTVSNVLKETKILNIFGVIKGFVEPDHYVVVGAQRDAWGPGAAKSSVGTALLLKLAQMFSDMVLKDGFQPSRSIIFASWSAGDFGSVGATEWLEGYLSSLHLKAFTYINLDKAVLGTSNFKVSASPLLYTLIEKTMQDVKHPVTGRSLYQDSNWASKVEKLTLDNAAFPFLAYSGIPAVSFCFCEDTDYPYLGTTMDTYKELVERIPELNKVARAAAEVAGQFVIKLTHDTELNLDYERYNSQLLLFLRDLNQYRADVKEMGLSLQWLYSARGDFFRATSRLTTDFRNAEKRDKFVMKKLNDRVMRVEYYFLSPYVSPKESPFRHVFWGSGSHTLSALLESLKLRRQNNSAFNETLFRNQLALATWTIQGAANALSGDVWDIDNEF
Briefly: SPR (Biacore T200), biotinylated cynomolgus TfR captured on an SA chip as ligand, VHH as analyte, single cycle kinetics, 1:1 binding model.
Excerpt: as §1, §2

The target in assay [3] is T1, recombinant human TfR (2474-TR, R&D …). The assay can be described thus: SPR (Biacore T200), biotinylated human TfR captured on SA chip, VHH as analyte, single cycle kinetics.
Excerpt: as §1
as §2, with “Binding affinities (KD) and kinetic rate constants (kₒₙ, koff) were derived after fitting the experimental data to the 1:1 binding model with the Biacore T200 Evaluation Software 3.1 using the single cycle kinetic procedure. Each interaction was repeated a least three times.” left out
A general note: SPR reads the build-up and loss of mass on a sensor chip optically.

Assay [4] concerns the target T2, recombinant cynomolgus TfR (90253-C07H, …). Briefly: SPR (Biacore T200), biotinylated cynomolgus TfR captured on SA chip, VHH as analyte, single cycle kinetics.
Excerpt: as §1
as §2, with “Binding affinities (KD) and kinetic rate constants (kₒₙ, koff) were derived after fitting the experimental data to the 1:1 binding model with the Biacore T200 Evaluation Software 3.1 using the single cycle kinetic procedure. Each interaction was repeated a least three times.” left out

Assay [5] deals with T3, human TfR overexpressed on CHO cells (human, UniProt P02786 1-760).
T3 construct: construct is TfR followed by an HA tag and IRES-GFP; also called hTfR; human transferrin receptor
The assay can be described thus: flow cytometry on CHO cells overexpressing human TfR (CHO-hTfR), VHH detected with anti-FLAG-iFluor647; median Flag-i647 intensity in total GFP cells. The method, then: (§3) Output libraries were screened with flow cytometry to find binders to human TfR overexpressing cells (FIG. 1A). […] Binding kinetics to recombinant human and cynomolgus TfR were further characterized with Surface Plasmon Resonance (SPR).
(§4) Periplasmic extracts diluted 1:10 in PBS 2% FBS, or a dilution range of different VHH or bispecific antibody concentrations prepared in PBS 2% FBS, were incubated with 0.1 million CHO cells overexpressing either the human, cynomolgus or mouse TfR for 30 min at 4° C. As control for background binding, periplasmic extracts, VHHs or bispecific antibodies were also incubated with 0.1 million CHO cells overexpressing GFP. Binding of VHHs was next resolved by a second step 30 min incubation at 4° C. with an anti-FLAG-iFluor647 antibody (A01811, Genscript) diluted 1:500 for screening and 1:250 for validation assays, or with anti-human IgG Fc-Alexa Fluor647 antibody (410714, BioLegend) diluted 1:200. […] Cells were fixed with 4% paraformaldehyde before being analyzed. Flp-In™-CHO™ cells used as unstained control and single stain controls were used to determine the cut-off point between background fluorescence and positive populations. […] The data was acquired with an Attune Nxt flow cytometer (Invitrogen) and analyzed by FCS Express 7 Research Edition.
On the technique in general: A flow cytometer gives signals particle by particle.

Assay [6] concerns the target T4, mouse TfR overexpressed on CHO cells (mouse, UniProt Q62351 1-763).
T4 construct: whole, on cells
The assay can be described thus: flow cytometry on CHO cells overexpressing mouse TfR (CHO-mTfR), VHH detected with anti-FLAG-iFluor647; median Flag-i647 intensity in total GFP cells. The method, then:
as §3, §4

T4 sequence (Q62351 whole entry): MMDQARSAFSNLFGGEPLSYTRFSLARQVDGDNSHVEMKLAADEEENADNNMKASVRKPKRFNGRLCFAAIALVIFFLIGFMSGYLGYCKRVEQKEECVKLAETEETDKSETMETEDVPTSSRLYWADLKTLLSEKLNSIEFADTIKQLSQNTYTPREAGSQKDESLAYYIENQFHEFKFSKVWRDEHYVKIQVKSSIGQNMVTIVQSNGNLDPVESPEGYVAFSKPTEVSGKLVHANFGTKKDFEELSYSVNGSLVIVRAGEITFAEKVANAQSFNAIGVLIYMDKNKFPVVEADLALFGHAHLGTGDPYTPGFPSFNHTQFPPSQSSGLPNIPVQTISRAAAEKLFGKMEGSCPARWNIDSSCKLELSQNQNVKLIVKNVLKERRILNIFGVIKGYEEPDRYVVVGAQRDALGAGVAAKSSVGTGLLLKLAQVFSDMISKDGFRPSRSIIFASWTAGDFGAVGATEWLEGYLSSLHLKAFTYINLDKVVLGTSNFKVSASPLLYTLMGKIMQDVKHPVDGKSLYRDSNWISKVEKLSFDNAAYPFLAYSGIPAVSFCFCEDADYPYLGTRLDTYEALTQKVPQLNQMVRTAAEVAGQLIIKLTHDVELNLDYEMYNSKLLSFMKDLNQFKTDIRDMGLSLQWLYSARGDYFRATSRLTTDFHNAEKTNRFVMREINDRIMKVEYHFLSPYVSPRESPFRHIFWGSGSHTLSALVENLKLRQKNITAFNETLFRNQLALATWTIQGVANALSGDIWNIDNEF

B1: BBB00515 (VHH)
VHH: QVQLQESGGGLVQAGGSLRLSCAASGSIFSINAMGWYRQAPGKQRELVAVITSGGSTIYADSVKGRFTISRDNAENTVYLQMNSLKPEDTAVYYCNAHVGLKVPTIQELSLGFGSWGQGTQVTVSS
notes: Lead VHH expressed in E. coli TG1 and purified by IMAC; detected with anti-FLAG antibody in flow cytometry; also called BBB00515 VHH; not shown: C-terminal 3xFlag/6xHis tag from expression vector pBDS119
For the molecule B1, the values for the koff in assay [1] and in assay [2] were 0.0137 s⁻¹ and 0.00942 s⁻¹, respectively. Moreover, the kon in assay [1] was found to be 15000 M⁻¹ s⁻¹; in assay [2] it was 149000 M⁻¹ s⁻¹. Also, the dissociation constant (Kd) in assay [3] is 1180 nM; in assay [4], 63 nM. The “EC50 (read off the curve)” value in assay [5] is about 50 nM. Also, in assay [6], the binding result was “no binding (tested: Log10 Conc 3.5 (about 3000 nM))”.

B2: BBB00533 (VHH)
VHH: QVQLQESGGGSVQPGGSLRLSCTASGRTFNYAMGWFRQAPGKNREFVATIDWKDGSSYYLDSVRGRFTIERDDAKNTVYLQMNSLKPEDAAVYTCAVGDGDYCSTYTCAAEVEYDYWGQGTQVTVSS
notes: Lead VHH expressed in E. coli TG1 and purified by IMAC; detected with anti-FLAG antibody in flow cytometry; also called BBB00533 VHH; not shown: C-terminal 3xFlag/6xHis tag from expression vector pBDS119
Take B2: the koff in assay [1] came out at 0.00592 s⁻¹; in assay [2], 0.0118 s⁻¹. In addition, the results for the association rate constant (kon) in assay [1] and in assay [2] were 29000 M⁻¹ s⁻¹ and 115000 M⁻¹ s⁻¹, respectively. Besides, the figures for the dissociation constant (Kd) in assay [3] and in assay [4] were 207 nM and 104 nM, respectively. Also, the concentration for a half-maximal effect (EC50 (read off the curve)) in assay [5] was about 50 nM. In addition, in assay [6], the binding result is “no binding (tested: Log10 Conc 3.5 (about 3000 nM))”.
